Laboratory results published in US20150376243A1, “Use of AXMI184 for the Control of Rootworm Insects” (ATHENIX CORP., priority 2013, published 2015).

Key:
[1] = test system: western corn rootworm (Diabrotica virgifera); assay: Root damage in T0 transgenic maize in root-trainer containers infested with western corn rootworm eggs (CRWNIS); type: in vivo; conditions: T0 maize plants containing optAxmi184 and expressing detectable AXMI184; ~125 non-diapausing eggs per plant; assessed after fifteen days; versus control plants infested in the same manner; FIG. 1
Source text: Transgenic maize plants transformed with an optimized version of Axmi184 (optAxmi184, set forth herein as SEQ ID NO:2) were obtained by Agrobacterium-mediated transformation. Plants shown by PCR analysis to contain the appropriate Axmi184 construct were selected, and transferred to root trainer containers.
T0 plants containing optAxmi184 were transplanted to root-trainer containers and propagated for approximately three weeks. Individual plants were then each infested with ˜125 non-diapausing western corn rootworm (Diabrotica virgifera) eggs. Plants were analyzed for expression of AXMI184 protein by Western blot analysis using an anti-AXMI184 antibody. Plants expressing detectable amounts of AXMI184 were selected for analysis. After fifteen days, the amount of root damage in each plant was assessed using the Node Injury Scale (CRWNIS) (Oleson et al. 2005. J. Econ Entomol. 98(1): 1-8), where 0.00 is no injury and 3.00 is all roots pruned to within 1.5 inches of the stalk on three entire nodes.

western corn rootworm = assay: Field trial of T1 maize plants, corn rootworm root injury (CRWNIS); type: in vivo, Diabrotica virgifera; conditions: two locations in Iowa; 750 non-diapausing western corn rootworm eggs per plant; scale 0.00 no injury to 3.00 three entire nodes pruned
Protocol: T1 plants expressing optAxmi184 were tested at two locations in Iowa. Each experimental unit consisted of a one-row plot of maize measuring approximately 15 feet. Plots were arranged using a randomized complete block design with four replications. Efficacy against western corn rootworm was determined by evaluating up to eight maize roots per plot. Inbreds B110 and B116, a CRW-susceptible commercial hybrid, and two CRW control standards: B110 with a standard granular insecticide (FORCE® 3G), and B110 with an insecticidal seed treatment (PONCHO® 1250) were used as controls.
Fields were prepared for this study using cultural practices similar to those used in commercial maize fields in Iowa. Plants not containing transgenic events for CRW control were identified and excluded from the study using an application of 16 oz/A of glyphosate when plants were at the V1 leaf stage. Five to ten days later, the number of positive and negative plants in each plot was recorded. Negative plants were then removed and the remaining positive plants were thinned to 8 plants per row. All plants were then manually infested with non-diapausing western corn rootworm eggs. The eggs were suspended in a dilute agar solution and calibrated to deliver 750 eggs per plant for all plots.
Roots were dug, washed and evaluated for CRW injury after a period of larval feeding. […]

B1: AXMI184: Pesticidal protein SEQ ID NO:3 from Bacillus thuringiensis strain ATX14775; expressed in maize from optimized gene optAxmi184 (SEQ ID NO:2) (protein, listed as Bacillus thuringiensis)
chain: MNMNKNNTKLSARALPSFIDYFNGIYGFATGIKDIMNMIFKTDTGGDLTLDEILKNQQLLNDISGKLDGVNGSLNDLIAQGNLNTELSKEILKIANEQNQVLNDVNNKLDAINTMLHVYLPKITSMLSDVMKPNYALSMQIEYLSRQLQEISDKLDIINVNVLINSTLTEITPAYQWIKYVNEKFEELTFATETTLKVKNDSASADILDELTELTELAKSVTKNDVDGFEFYLNTFHDVMVGNNLFGRSTLKTASELIAKENVKTSGSEVGNVYNFLVVLTALQAKAFLTLTTCRKLLGLADIDYTSIMNEHLNKEKEEFRVNILPILSNTFSNPNYAKVKGSDEDAKMIVEAKPGHALVGFEISNDSMTVLKVYEAKLKQNYQVDKDSLSEVIYGDMDKLLCPDQSEKIYYTNNIVFPNEYVITKIDFTKKMKTLRYEVTANSYDSSTGEIDLNKKKVESSKAEYRTLSANNDGVYMPLGVISETFLTPINGFGLQADENSRLITLTCKSYLRELLLATDLSNKETKLIVPPNSFISNIVENGSIEEGHLEPWKANNKNAYVDHTGGVNGTKALYVHEDGGVSQFMGDKLKPKTEYVIQYTVKGKPSIHLKDENTGYILYEDTNNDLEDFQTITKRFTTGTDLMRVYLILKSQSGHEAWGDNFTILEIKPAEALVSPELINPNSWITTQGASISGDKLFISLGTNGTFRQNLSLNSYSTYSISFTASGPFNVTVRNSREVLYERNNLMSSTSHISGEFKTESNNTGLYVELSRRSGGAGHISFENISIK
With B1 the “amount of root damage, Node Injury Scale (CRWNIS)” value [1] was “lower root damage than control plants” and the “Average CRWNIS” value (western corn rootworm) was 0.12.
